Data published in PMC4395133 (Molecular Biology of the Cell, 2015).

B1: GST-IMPα4 (natural protein, mouse, UniProt O35343 1-521, looked up)
chain: MADNEKLDNQRLKNFKNKGRDLETMRRQRNEVVVELRKNKRDEHLLKRRNVPQEDICEDSDIDGDYRVQNTSLEAIVQNASSDNQGIQLSAVQAARKLLSSDRNPPIDDLIKSGILPILVHCLERDDNPSLQFEAAWALTNIASGTSEQTQAVVQSNAVPLFLRLLHSPHQNVCEQAVWALGNIIGDGPQCRDYVISLGVVKPLLSFISPSIPITFLRNVTWVMVNLCRHKDPPPPMETIQEILPALCVLIHHTDVNILVDTVWALSYLTDAGNEQIQMVIDSGIVPHLVPLLSHQEVKVQTAALRAVGNIVTGTDEQTQVVLNCDALSHFPALLTHPKEKINKEAVWFLSNITAGNQQQVQAVIDANLVPMIIHLLDKGDFGTQKEAAWAISNLTISGRKDQVAYLIQQNVIPPFCNLLTVKDAQVVQVVLDGLSNILKMAEDQAETIANLIEECGGLEKIEQLQNHENEDIYKLAYEIIDQFFSSDDIDEDPSLVPESVQGGTFGFNSSTNVPTEGFQF
B2: HIS-tagged recombinant PSPC1 (natural protein, mouse, UniProt Q8R326-1 3-523, looked up)
chain: LRGNLKQVRIEKNPARLRALESAAGESEPVAAAAMALTLAGEQAPPPAPSEEHPDEELGFTIDIKSFLKPGEKTYTQRCRLFVGNLPTDITEEDFKRLFERYGEPSEVFINRDRGFGFIRLESRTLAEIAKAELDGTILKSRPLRIRFATHGAALTVKNLSPVVSNELLEQAFSQFGPVEKAVVVVDDRGRATGKGFVEFAAKPPARKALERCGDGAFLLTTTPRPVIVEPMEQFDDEDGLPEKLMQKTQQYHKEREQPPRFAQPGTFEFEYASRWKALDEMEKQQREQVDRNIREAKEKLEAEMEAARHEHQLMLMRQDLMRRQEELRRLEELRNQELQKRKQIQLRHEEEHRRREEEMIRHREQEELRRQQEGGFKPNYMENREQEMRMGDMGPRGAINMGDAFSPAPAGTQGPPPMMGMNMNNRGTIPGPPMGPGPAMGPEGAANMGTPMIPDNGAVHNDRFPQGPPSQMGSPMGNRTGSETPQAPMSGVGPVSGGPGGFGRGSQGGNFEGPNKRRRY

How the values were obtained:
Assay in all cases: ELISA
[1] = biological target: B2
[2] = biological target: GST-tagged full-length IMPα2 (mouse, UniProt P52293 1-529)
GST-IMPα6 = GST-IMPα6 (mouse, UniProt O35345 1-536)
[3] = biological target: IMPα2/GST-IMPβ1 heterodimer (tag-free IMPα2 predimerized with GST-IMPβ1) (mouse | , UniProt P52293 1-529; P70168 1-876)
Sequence of IMPα2/GST-IMPβ1 heterodimer (tag-free IMPα2 predimerized with GST-IMPβ1) (P70168 whole entry, one chain of several): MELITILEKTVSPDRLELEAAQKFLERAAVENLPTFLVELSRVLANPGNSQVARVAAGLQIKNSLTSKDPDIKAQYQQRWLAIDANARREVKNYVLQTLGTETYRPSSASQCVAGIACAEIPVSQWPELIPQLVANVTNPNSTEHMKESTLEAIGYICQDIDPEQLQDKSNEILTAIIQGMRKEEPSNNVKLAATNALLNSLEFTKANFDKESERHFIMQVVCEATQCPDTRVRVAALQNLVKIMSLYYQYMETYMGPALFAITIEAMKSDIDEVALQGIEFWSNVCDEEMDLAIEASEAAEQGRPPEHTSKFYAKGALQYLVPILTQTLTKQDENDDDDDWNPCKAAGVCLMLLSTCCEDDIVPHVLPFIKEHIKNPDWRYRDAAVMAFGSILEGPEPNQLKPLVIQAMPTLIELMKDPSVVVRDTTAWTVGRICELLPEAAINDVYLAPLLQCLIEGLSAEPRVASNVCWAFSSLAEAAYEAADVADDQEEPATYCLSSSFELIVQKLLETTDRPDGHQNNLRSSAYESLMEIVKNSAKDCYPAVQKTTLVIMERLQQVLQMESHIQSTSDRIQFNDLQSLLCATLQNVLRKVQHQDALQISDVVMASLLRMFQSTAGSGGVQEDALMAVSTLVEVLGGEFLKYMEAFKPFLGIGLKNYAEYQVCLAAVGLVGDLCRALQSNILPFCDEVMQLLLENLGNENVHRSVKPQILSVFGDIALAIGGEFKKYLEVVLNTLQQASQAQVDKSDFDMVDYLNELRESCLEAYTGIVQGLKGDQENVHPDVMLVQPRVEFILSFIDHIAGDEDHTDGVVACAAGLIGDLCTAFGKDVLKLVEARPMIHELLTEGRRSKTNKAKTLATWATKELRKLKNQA

[4] = biological target: IMPα4/GST-IMPβ1 heterodimer (tag-free IMPα4 predimerized with GST-IMPβ1) (mouse | , UniProt O35343 1-521; P70168 1-876)
Sequence of IMPα4/GST-IMPβ1 heterodimer (tag-free IMPα4 predimerized with GST-IMPβ1) (P70168 whole entry, one chain of several): as above

[5] = biological target: IMPα6/GST-IMPβ1 heterodimer (tag-free IMPα6 predimerized with GST-IMPβ1) (mouse | , UniProt O35345 1-536; P70168 1-876)
Sequence of IMPα6/GST-IMPβ1 heterodimer (tag-free IMPα6 predimerized with GST-IMPβ1) (P70168 whole entry, chain 2 of 2): as the sequence (P70168 whole entry, one chain of several) above

Row | Kd [1] | Kd [2] | Kd (GST-IMPα6) | Kd [3] | Kd [4] | Kd [5] | Binder
1 | 57.9 nM |  |  |  |  |  | B1
2 |  | 15 nM | 5.9 nM | 1.9 nM | 21.3 nM | 2.1 nM | B2
